Measurements: the supplement of paper PMC10567573

B1: USP39 (parent)
chain: FVEKNPTIVNFPITNVDLREYLSE

Variants of: B1
Experiment: protein stability index of a GFP-peptide fusion (GPS, HEK-293T) (PSI 1-6); higher = more stable
Conditions: c terminus: a fixed tail appended
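Also: lentivirally expressed fusions sorted by FACS into six bins by GFP to DsRed ratio, PSI derived from sequencing read proportions per bin multiplied by bin number.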

Protein stability index of substitutions, site by site:
V16: R 2.78, N 1.49, L 2.05, D 1.89, E 2.04, Q 1.99, T 2.94, A 2.02, S 1.82, Y 1.62, I 1.6, M 2.37, F 1.8, P 2.29, C 1.41, H 1.49, K 1.74, W 1.52, G 1.89
I13: K 2.25, C 1.77, S 2.59, G 1.71, L 1.67, M 2.6, T 1.36, N 2.42, H 1.81, P 1.91, D 2.17, E 2.4, F 2.08, Q 2.22, Y 1.73, A 2.23, R 1.98, V 2.03
K4: W 1.24, V 1.81, S 2.52, Y 2.32, T 2.29
D17: Q 1.92, R 2.25, P 1.34, H 2.25, M 1.62, V 2.64, G 2.02, C 2.08, K 1.11, Y 1.84, S 2.28, A 2.46, E 1.95, L 1.28, T 1.35, I 3.11, N 1.55, W 1.4, F 2.63
F11: R 2.02, Y 3.36, Q 2.09, I 2.42, L 1.88, A 1.85, N 2.22, S 1.77, G 2.13, D 2.82, K 2.05, E 3.01, C 2.01, W 1.23, T 2.02, H 2, V 1.82, P 2, M 1.78
P6: S 3, Q 1.98, F 2.6, C 2.45, D 2.39, I 2.61, K 2.76, R 2.13, Y 2.82, G 1.95, M 2.47, E 2.21, V 2.38, N 2.1, L 1.19, H 1.92, A 3.96, T 2.21
L18: M 1.64, K 1.3, F 2.06, P 1.24, V 2.65, D 2.21, T 1.54, R 1.71, W 2.33, Q 2.64, S 1.43, E 2.05, C 2.64, A 1.69, N 1.78, H 1.42, Y 1.92, I 2.53, G 2.1
L22: T 2.03, I 1.93, K 2.09, W 1.74, F 2.1, P 1.84, N 1.47, H 1.5, C 1.12, M 2.07, D 1.64, V 1.83, S 2.49, E 1.75, R 1.66, Q 2.44, G 2.12, A 2.47, Y 1.9
N15: Y 2.3, D 1.56, C 1.77, V 2.27, M 2.12, Q 2.13, S 1.18, T 1.43, R 2.21, K 2.13, P 1.45, L 2.05, G 1.37, H 1.44, I 2.26, A 1.52
T7: Q 1.81, P 1.55, H 1.69, L 2.02, N 2.39, D 2.15, E 2, A 1.8, K 1.74, Y 3.42, F 1.8, R 1.98, S 1.5
S23: C 2.41, A 1.57, G 1.34, D 1.84, E 1.83, F 2.12, H 2.76
Y21: H 2.84, Q 1.87, W 1.47, M 1.49, G 2.44, F 2.04, K 1.21, P 1.62, D 1.71, N 1.9, L 2.27, I 2.04, T 1.86, R 1.57, A 2.35, S 2.27, V 1.52, C 1.6, E 2.21
N10: P 2.42, Q 2.3, F 1.57, S 1.76, I 3.79, A 2.02, D 2.14, H 1.75, T 1.77, K 2.48, E 1.99, G 2.93, L 3.29, R 1.8, V 2.29, W 2.08
I8: Y 1.55, M 1.25, L 2.81, W 2.96, D 2.77, E 2.67, H 2.12, T 3.34, N 2.1, A 1.82, Q 2.54, C 2.02, G 1.91, V 1.89, P 2.76, K 2.04, F 2.25, R 2.56, S 2.89
N5: S 2.08, M 2.15, D 2.74, Q 2.55, C 1.44, E 1.91, Y 2.83, A 1.35, T 2.37, L 2.63, P 1.67, G 1.51, V 2.05, K 2.74, I 1.58, R 1.94, H 1.96
V9: Y 3.09, L 1.63, N 1.98, R 2.16, H 1.8, G 2.03, M 1.63, F 1.73, S 1.8, I 2.23, E 2.91, D 2.27, T 2.36, K 2.38, A 2.66, P 1.89, Q 2.03, C 1.5
R19: E 2.09, T 1.63, C 2.05, W 2.13, P 2.08, I 2.49, A 2.92, N 1.99, K 1.78, G 1.64, Q 2.35, S 1.31, F 2.81, L 2.06, D 1.44, Y 2.1, H 1.25, M 1.65, V 1.83
E20: P 2.02, M 2.41, F 1.71, Q 2.08, H 2.01, N 1.55, S 2.5, T 1.46, I 2.01, W 1.77, V 2.28, R 1.41, K 2.56, A 1.46, G 1.13, Y 2.88, L 1.39, C 1.68, D 1.81
T14: E 1.43, V 2.08, P 1.54, D 2.65, Y 1.97, F 1.98, G 1.82, N 2.67, A 1.74, Q 1.81, S 2.08, R 2.78, I 3.46, M 1.57, K 1.73, H 2.09, C 1.72, L 1.86, W 3.7
P12: Q 1.74, E 1.66, N 2.3, W 2.96, C 1.48, I 2.38, K 1.56, F 3.66, V 2.28, G 2.21, A 2.06, T 2.28, H 1.47, S 1.34, M 3.23, R 2.74
